Target: recombinant human IP-10 (Peprotech) (human) (UniProt P02778)
Assay: cell-based or functional assay

Chain of recombinant human IP-10 (Peprotech) (human) (P02778 22-98 limits assumed): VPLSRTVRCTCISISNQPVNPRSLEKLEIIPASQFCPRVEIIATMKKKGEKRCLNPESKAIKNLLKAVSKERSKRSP

- Calcium flux IC50 (nM); 10 nM hIP-10: 89 nM
- Chemotaxis IC50 (nM); 1 nM hIP-10: 90 nM
B1: CC21R3P5_C5 (scFv format) (scFv, part only; not given: scFv linker, part only)
scFv, part: QVQLVQSGGGVVQPGRSLRLSCAASGFTFSTYGMHWVRQAPGKGLEWVAVISYDGGTKYYADSVKGRFTISRDNSMKTLYLQMNSLRTEDTAVYYCAKDLGDLPPGLDYWGRGTMVTVSSCHEMICALLYSYNTHESIZEDSYELTQPPSVSVALGQTATITCGGSSIESKSVHWYQEKPGQAPVLVIYKDSNRPSVIPERFSGSNSGNTATLTIGRAQAGDEADYYCQVWDSSTGVVFGGGTKLTVL

Reference: patent US20130216549A1
